Test [1] concerns the target T1, human LAG-3 on cells (human, UniProt P18627 23-525).
T1 sequence (looked up): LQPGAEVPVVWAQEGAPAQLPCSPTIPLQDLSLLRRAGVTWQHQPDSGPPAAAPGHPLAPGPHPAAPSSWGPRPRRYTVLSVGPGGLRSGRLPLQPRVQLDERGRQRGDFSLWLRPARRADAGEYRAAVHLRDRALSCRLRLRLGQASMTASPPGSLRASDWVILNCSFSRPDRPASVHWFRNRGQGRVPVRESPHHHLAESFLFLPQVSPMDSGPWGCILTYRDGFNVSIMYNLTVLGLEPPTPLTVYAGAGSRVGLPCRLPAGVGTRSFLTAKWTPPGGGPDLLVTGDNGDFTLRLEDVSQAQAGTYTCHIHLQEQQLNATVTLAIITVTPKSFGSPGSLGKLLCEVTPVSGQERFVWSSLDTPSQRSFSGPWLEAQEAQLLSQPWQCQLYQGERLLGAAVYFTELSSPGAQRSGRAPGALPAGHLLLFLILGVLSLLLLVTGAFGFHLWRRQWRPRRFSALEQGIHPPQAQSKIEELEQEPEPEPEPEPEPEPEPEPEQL
Description: cell-based or functional assay.

The target in test [2] is T2, His-tagged human PD-1 protein (MW: 40 KD) (human, UniProt Q15116 25-167).
T2 construct: not shown: His tag
In words: SPR Biacore 8K; antibody captured on anti-human Fc, His-PD-1 injected. As for the experimental part:
Binding affinity of the bispecific antibodies to the antigen were determined by SPR assay using Biacore 8K. PD-1×LAG-3 antibodies were captured on an anti-human IgG Fc antibody immobilized CMS sensor chip (GE).
(§1) The sensorgrams of blank surface and buffer channel were subtracted from the test sensorgrams. The experimental data was fitted by 1:1 model using Langmiur analysis.

In test [3] the target is T3, human PD-1 on cells (human, UniProt Q15116 25-288).
T3 construct: whole, on cells; also called cell surface human PD-1; PD-1 expressing CHO-S cells
Description: flow cytometry; competition with mFc-PD-L1 on PD-1 expressing CHO-S cells. The procedure: The mixture was transferred into the 96-well plates seeded with PD-1 expressing CHO-S cells. […] The MFI was evaluated by flow cytometry and analyzed by the software FlowJo.
(In flow cytometry, cells or beads pass a laser one at a time.)

The target in test [4] is T1, human LAG-3 on cells. Description: flow cytometry on human LAG-3 expressing 293F cells. As for the experimental part: (§2) MFI of the cells was measured by flow cytometry and analyzed by FlowJo (version 7.6.1).
Test [5] addresses T3, human PD-1 on cells. Description: cell-based or functional assay.
The target of another test is T4, mouse PD-1 protein (mouse, UniProt Q02242 25-167, limits assumed).
T4 sequence (looked up): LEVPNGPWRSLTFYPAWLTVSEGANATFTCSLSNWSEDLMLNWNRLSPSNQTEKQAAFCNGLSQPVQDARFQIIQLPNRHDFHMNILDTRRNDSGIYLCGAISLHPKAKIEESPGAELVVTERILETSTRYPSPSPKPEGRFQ
Description: ELISA, antibody coated on the plate, mouse PD-1 (His tag on the sheet) added at 0.25, 2.5 and 25 nM, OD450. As for the experimental part: After blocking and washing, various concentrations of mouse PD-1 protein were added to the plates and incubated at room temperature for 1 hour. The plates were then washed and subsequently incubated with HRP-labeled goat anti-mouse IgG antibody for 1 hour. After washing, TMB substrate was added and the color reaction was stopped by 2M HCl. The absorbance at 450 nm was read using a microplate reader.
On the technique in general: ELISA stands for enzyme-linked immunosorbent assay.

For the next test, the target named is T5, human CD28 protein (human, UniProt P10747 19-152).
T5 construct: extracellular domain
Description: ELISA, human CD28 coated at 1 ug/mL, antibody added at 0.67 and 6.7 nM, OD450. As for the experimental part:
(§3) Cross-reactivity to human CD4, CTLA-4 or CD28 was measured by ELISA. Plates were coated with human CD4, CTLA-4 or CD28 at 1 μg/mL overnight at 4° C. […] The plates were then washed and subsequently incubated with corresponding secondary antibody for 60 min. After washing, TMB substrate was added and the color reaction was stopped by 2M HCl.

Test [6] concerns the target T3, human PD-1 on cells. Description: flow cytometry on human PD-1 expressing cells. As for the experimental part:
as §2

In test [7] the target is T6, mouse Fc-tagged human LAG-3 protein (human, UniProt P18627 23-450).
T6 construct: extracellular domain; also called mouse Fc-tagged LAG-3 protein; not shown: mouse Fc tag
T6 sequence (looked up): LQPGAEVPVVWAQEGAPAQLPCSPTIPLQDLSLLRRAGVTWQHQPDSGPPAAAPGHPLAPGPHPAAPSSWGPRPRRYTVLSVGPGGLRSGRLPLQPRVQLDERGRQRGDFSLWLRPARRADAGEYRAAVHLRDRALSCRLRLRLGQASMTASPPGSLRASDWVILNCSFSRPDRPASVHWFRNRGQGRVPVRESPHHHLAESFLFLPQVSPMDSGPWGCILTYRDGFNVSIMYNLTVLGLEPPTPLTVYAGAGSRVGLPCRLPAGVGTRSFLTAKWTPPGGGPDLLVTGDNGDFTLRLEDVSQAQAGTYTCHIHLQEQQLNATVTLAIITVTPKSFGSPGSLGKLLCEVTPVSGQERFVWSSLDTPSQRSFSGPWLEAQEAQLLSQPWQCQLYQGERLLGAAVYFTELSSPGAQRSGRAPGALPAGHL
Description: flow cytometry; blocking of mFc-LAG-3 binding to MHC-II on Raji cells. As for the experimental part:
The mixture was transferred into the 96-well plates seeded with Raji cells which express MHC-II on the surface. […] The MFI was evaluated by flow cytometry and analyzed by the software FlowJo.

Test [8] concerns the target T7, cynomolgus LAG-3 on cells (cynomolgus).
T7 construct: whole, on cells; also called cell surface cynomolgus LAG-3
In words: flow cytometry on cynomolgus LAG-3 expressing 293F cells. As for the experimental part: (§4) MFI of the cells was measured by flow cytometry and analyzed by FlowJo.

The target of a further test is human CD4 protein (human, UniProt P01730 26-390, limits assumed). Description: ELISA, human CD4 coated at 1 ug/mL, antibody added at 0.67 and 6.7 nM, OD450. The procedure: as §3
The target of test [9] is T6, mouse Fc-tagged human LAG-3 protein. In words: ELISA; antibody coated, mFc-tagged LAG-3 titrated. As for the experimental part: The plates were then washed and subsequently incubated with HRP-labeled goat anti-mouse IgG antibody for 1 hour. After washing, TMB substrate was added and the color reaction was stopped by 2M HCl. The absorbance at 450 nm was read using a microplate reader.

The target of test [10] is T8, mouse Fc-tagged human PD-1 protein (human, UniProt Q15116 25-170).
T8 construct: extracellular domain; also called mouse Fc-tagged PD-1 protein; not shown: mouse Fc tag
Description: dual-binding ELISA; mFc-PD-1 coated, antibody titrated, detected by His-tagged LAG-3 and anti-His-HRP; dual binding: PD-1 and LAG-3 protein together.

In test [11] the target is T8, mouse Fc-tagged human PD-1 protein. Description: ELISA; antibody coated, mFc-tagged PD-1 titrated.
A further test addresses T9, human CTLA-4 protein (human, UniProt P16410 36-161).
T9 construct: extracellular domain
In words: ELISA, human CTLA-4 coated at 1 ug/mL, antibody added at 0.67 and 6.7 nM, OD450. As for the experimental part:
as §3

The target in the next test is T10, Human LAG-3 without tag (human, UniProt P18627 23-450).
T10 construct: extracellular domain; also called untagged LAG-3 ECD protein
T10 sequence (looked up): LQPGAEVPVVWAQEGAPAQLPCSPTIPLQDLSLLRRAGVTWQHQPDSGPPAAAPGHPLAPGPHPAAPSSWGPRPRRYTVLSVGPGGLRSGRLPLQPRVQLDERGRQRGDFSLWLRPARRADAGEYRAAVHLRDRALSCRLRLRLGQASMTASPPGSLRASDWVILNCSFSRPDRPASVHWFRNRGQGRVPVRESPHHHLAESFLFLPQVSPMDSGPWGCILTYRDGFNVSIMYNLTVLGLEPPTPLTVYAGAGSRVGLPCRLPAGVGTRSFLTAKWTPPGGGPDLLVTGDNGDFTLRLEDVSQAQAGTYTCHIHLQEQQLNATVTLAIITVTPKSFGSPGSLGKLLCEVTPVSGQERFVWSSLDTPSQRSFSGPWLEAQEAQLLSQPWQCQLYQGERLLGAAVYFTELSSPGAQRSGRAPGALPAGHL
In words: SPR; antibody immobilized, untagged human LAG-3 injected, single-cycle kinetics. As for the experimental part:
The chip was regenerated with 10 mM glycine (pH 1.5).
as §1

Another test has as its target T11, cynomolgus PD-1 on cells (cynomolgus, UniProt B0LAJ3 25-288).
T11 construct: also called cell surface cynomolgus PD-1
In words: flow cytometry on cynomolgus PD-1 expressing 293F cells. As for the experimental part: as §4

In test [12] the target is cynomolgus LAG-3 (Example 3) (cynomolgus). In words: method not stated.
The target of test [13] is T12, human LAG-3 protein (Example 3) (human, UniProt P18627 23-450, limits assumed).
T12 construct: human is stated for the SPR test
T12 sequence (looked up): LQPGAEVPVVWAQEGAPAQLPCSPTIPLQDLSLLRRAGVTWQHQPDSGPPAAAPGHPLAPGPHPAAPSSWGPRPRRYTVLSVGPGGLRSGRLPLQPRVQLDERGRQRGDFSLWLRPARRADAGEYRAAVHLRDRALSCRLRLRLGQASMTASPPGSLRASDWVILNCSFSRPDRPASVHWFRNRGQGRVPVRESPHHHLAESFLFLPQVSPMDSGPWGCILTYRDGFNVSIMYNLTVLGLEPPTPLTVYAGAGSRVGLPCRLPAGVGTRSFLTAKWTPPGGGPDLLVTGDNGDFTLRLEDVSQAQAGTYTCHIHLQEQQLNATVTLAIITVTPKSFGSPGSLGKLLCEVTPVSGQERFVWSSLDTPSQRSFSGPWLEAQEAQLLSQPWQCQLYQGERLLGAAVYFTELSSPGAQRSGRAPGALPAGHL
Description: SPR; SPR, direct binding.

The target in test [14] is T12, human LAG-3 protein (Example 3). In words: FACS; blocking of LAG-3 protein binding to MHC-II on Raji cells; FACS; blocking LAG-3 binding to MHC-II on Raji cells.
The target is the same in test [15]. Description: ELISA; blocking of LAG-3 protein binding to Galectin-3; ELISA; blocking LAG-3 binding to Galectin-3.
The target of test [16] is T1, human LAG-3 on cells. Description: FACS affinity test on cell surface human LAG-3.
In test [17] the target is T12, human LAG-3 protein (Example 3). In words: ELISA; blocking of LAG-3 protein binding to LSECtin; ELISA; blocking LAG-3 binding to LSECtin.
The target in test [18] is T1, human LAG-3 on cells. Description: FACS on cell surface human LAG-3.

T2 sequence (Q15116 25-167 limits assumed): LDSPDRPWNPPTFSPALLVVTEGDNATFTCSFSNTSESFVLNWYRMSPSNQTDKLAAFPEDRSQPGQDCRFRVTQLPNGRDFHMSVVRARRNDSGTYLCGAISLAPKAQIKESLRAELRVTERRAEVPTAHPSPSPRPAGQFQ
T3 sequence (Q15116 25-288): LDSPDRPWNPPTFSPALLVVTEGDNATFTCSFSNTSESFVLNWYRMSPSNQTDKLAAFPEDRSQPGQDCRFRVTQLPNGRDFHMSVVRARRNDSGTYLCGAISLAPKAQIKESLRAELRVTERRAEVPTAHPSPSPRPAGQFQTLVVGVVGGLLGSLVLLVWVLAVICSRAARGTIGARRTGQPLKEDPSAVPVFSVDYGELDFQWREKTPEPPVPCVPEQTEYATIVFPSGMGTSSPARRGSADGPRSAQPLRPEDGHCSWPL
T8 sequence (Q15116 25-170): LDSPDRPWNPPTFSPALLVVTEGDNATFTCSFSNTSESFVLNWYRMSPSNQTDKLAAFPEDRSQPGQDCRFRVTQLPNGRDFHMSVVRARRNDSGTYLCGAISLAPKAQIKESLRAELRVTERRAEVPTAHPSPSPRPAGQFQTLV
T9 sequence (P16410 36-161): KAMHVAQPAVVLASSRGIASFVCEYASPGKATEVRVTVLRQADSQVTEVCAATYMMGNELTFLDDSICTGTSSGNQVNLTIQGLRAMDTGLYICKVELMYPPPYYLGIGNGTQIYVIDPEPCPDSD
T11 sequence (B0LAJ3 entry or part of it limits assumed): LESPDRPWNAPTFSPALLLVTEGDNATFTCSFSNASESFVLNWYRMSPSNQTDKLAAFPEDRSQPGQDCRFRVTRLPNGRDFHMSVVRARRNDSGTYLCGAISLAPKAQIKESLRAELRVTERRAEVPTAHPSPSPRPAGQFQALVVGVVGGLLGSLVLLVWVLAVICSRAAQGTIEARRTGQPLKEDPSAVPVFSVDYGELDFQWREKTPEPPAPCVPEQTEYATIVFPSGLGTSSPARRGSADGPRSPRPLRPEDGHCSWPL

B1: W365-U6T1.G14-1.uIgG4.SP (bispecific antibody)
heavy: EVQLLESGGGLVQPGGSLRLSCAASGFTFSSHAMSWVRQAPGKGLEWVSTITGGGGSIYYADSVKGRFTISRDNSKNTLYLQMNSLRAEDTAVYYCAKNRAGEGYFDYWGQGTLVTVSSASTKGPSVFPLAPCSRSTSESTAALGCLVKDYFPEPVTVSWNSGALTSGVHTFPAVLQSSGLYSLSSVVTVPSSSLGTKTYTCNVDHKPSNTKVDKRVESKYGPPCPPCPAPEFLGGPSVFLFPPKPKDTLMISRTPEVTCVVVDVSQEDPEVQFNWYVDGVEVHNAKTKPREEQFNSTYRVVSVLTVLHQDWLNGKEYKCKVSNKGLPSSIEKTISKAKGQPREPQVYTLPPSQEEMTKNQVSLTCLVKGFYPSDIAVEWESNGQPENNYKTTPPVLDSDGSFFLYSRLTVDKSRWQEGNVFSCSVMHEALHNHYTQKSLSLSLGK
light: SYELTQPLSVSVALGQTARITCGGDNIGNKDVHWYQQKPGQAPVLVIYRDSNRPSGIPEGFSGSNSGNTATLTISRAQAGDEADYYCQVWDSIWVFGGGTKLTVLGQPKAAPSVTLFPPSSEELQANKATLVCLISDFYPGAVTVAWKADSSPVKAGVETTTPSKQSNNKYAASSYLSLTPEQWKSHKSYSCQVTHEGSTVEKTVAPTECSGGGGSGGGGSQLQLQESGPGLVKPSETLSLTCTVSGDSISSTSYYWGWIRQPPGKGLEWIGSFYYSGSTYYNPSLKSRVTISVDTSKNQFSLKLNSVTAADTAVYYCARMQLWSYDVDVWGQGTTVTVSSGGGGSGGGGSGGGGSQSALTQPASVSGSPGQSITISCTGTSSDVGGYDYVAWYQQHPGKVPKLMIYDVSERPSGVSNRFSGSKSGNTASLTISGLQAEDEADYYCSSYTSTTTLVVFGGGTKLSVL
notes: Anti-PD-1 (W3055-1.153.7) human IgG4 S228P; also called W365-G14; W365G-14
As for B1, in the test with human LAG-3 on cells [1], the “EC50 of IL-2 pathways enhancement (luciferase reporter)” value was 0.92 nM. For the same molecule, the Kd (commonly a measure of binding affinity in units of concentration) was 2.46 nM in test [2] and less than 0.0261 nM with Human LAG-3 without tag. The off-rate (koff) (in general, a measure of how fast the partners let go of each other) was 0.000695 s⁻¹ in test [2] and less than 1e-05 s⁻¹ in the test with Human LAG-3 without tag. The kon (in general, the second-order rate constant of association) in [2] worked out at 283000 M⁻¹ s⁻¹; with Human LAG-3 without tag, 383000 M⁻¹ s⁻¹. For the same molecule, the IC50 (commonly the point on the concentration scale where inhibition reaches its midpoint) was 1.01 nM in the test with human PD-1 on cells [3] and 2.2 nM in test [7]. For the same molecule, the half-maximal effective concentration (EC50) (as a rule, the concentration needed to bring the measured effect to its halfway point) was 2.57 nM with human LAG-3 on cells [4]; 1.32 nM with human PD-1 on cells [6]; 6.5 nM in [8]; 0.27 nM in test [9]; 0.04 nM in test [10]; 0.07 nM in [11]. The molecule also yielded an EC50 in the test with cynomolgus PD-1 on cells of 0.38 nM. Besides, in the test with human PD-1 on cells [5], the “EC50 of NFAT pathways enhancement (luciferase reporter)” value was 0.4 nM. The binding result with mouse PD-1 protein is given as “no binding (tested: 25 nM (mouse PD-1))”; with human CD28 protein it was “no binding (tested: 6.7 nM)”; with human CD4 protein, “no binding (tested: 6.7 nM)”; with human CTLA-4 protein it was “no binding (tested: 6.7 nM)”.

B2: W3395-3.40.19 (antibody, V domains shown)
VH: QLQLQESGPGLVKPSETLSLTCTVSGDSISSTSYYWGWIRQPPGKGLEWIGSFYYSGSTYYNPSLKSRVTISVDTSKNQFSLKLNSVTAADTAVYYCARMQLWSYDVDVWGQGTTVTVSS
VL: QSALTQPASVSGSPGQSITISCTGTSSDVGGYDYVAWYQQHPGKVPKLMIYDVSERPSGVSNRFSGSKSGNTASLTISGLQAEDEADYYCSSYTSTTTLVVFGGGTKLSVL
notes: Fully human monoclonal anti-LAG-3 antibody; also called human W3395-3.40.19 LAG-3 Ab
Regarding B2, the EC50 in test [12] came out at 3.92 nM; in test [14] it was 0.67 nM; in [15], 0.56 nM; in test [17], 0.51 nM; in the test with human LAG-3 on cells [18], 0.13 nM. Further, the Kd was found to be 0.0106 nM in test [13] and 0.053 nM in the test with human LAG-3 on cells [16].

Values taken from patent US20210115138A1 (WUXI BIOLOGICS IRELAND, published 2021).
